Ends that are not written are not given here.
How the values were obtained:
[1] = target: USP33 DUSP2 domain (human) (UniProt Q8TEY7); assay: fluorescence polarisation; displacement: serial dilution of the unlabelled peptide against the domain (at two-fold the KD of the FITC-labelled peptide) in complex with 10 nM FITC-labelled peptide; 50 mM phosphate buffer pH 7.4; room temperature; three technical replicates; sigmoidal dose-response fit
[2] = target: USP20 DUSP2 domain (human) (UniProt Q9Y2K6); assay: as above
Sequence of USP20 DUSP2 domain (human) (Q9Y2K6 whole entry, the tested form may be a part): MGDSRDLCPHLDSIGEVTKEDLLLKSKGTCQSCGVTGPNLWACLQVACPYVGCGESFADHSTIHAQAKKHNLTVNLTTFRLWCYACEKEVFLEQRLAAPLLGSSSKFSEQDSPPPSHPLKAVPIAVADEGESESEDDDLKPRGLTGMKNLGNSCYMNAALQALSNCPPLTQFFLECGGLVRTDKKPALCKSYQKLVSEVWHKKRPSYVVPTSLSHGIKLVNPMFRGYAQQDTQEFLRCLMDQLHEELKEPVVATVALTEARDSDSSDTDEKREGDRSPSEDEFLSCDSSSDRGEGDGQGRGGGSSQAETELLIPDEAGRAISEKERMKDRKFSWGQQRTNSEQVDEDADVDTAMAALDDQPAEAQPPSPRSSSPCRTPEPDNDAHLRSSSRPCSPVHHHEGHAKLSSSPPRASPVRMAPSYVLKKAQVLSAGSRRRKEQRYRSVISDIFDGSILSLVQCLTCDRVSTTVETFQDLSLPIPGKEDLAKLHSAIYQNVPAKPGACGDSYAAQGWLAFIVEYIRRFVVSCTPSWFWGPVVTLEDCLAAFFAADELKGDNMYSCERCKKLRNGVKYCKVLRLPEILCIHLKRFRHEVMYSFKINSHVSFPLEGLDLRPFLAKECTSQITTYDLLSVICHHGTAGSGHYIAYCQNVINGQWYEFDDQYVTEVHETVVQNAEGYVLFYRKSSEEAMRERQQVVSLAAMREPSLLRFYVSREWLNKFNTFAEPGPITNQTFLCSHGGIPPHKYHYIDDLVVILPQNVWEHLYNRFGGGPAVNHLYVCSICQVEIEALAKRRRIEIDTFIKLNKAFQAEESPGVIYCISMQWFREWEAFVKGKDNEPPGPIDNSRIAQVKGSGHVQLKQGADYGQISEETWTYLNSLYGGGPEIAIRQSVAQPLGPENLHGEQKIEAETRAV

[3] = target: T1, CYLD CAP-Gly1 domain, GST-tagged, Q9NQC7; assay: peptide SPOT array alanine scanning; details: chain shown with the change;; parent: est. 0; read off a plot
T1 chain: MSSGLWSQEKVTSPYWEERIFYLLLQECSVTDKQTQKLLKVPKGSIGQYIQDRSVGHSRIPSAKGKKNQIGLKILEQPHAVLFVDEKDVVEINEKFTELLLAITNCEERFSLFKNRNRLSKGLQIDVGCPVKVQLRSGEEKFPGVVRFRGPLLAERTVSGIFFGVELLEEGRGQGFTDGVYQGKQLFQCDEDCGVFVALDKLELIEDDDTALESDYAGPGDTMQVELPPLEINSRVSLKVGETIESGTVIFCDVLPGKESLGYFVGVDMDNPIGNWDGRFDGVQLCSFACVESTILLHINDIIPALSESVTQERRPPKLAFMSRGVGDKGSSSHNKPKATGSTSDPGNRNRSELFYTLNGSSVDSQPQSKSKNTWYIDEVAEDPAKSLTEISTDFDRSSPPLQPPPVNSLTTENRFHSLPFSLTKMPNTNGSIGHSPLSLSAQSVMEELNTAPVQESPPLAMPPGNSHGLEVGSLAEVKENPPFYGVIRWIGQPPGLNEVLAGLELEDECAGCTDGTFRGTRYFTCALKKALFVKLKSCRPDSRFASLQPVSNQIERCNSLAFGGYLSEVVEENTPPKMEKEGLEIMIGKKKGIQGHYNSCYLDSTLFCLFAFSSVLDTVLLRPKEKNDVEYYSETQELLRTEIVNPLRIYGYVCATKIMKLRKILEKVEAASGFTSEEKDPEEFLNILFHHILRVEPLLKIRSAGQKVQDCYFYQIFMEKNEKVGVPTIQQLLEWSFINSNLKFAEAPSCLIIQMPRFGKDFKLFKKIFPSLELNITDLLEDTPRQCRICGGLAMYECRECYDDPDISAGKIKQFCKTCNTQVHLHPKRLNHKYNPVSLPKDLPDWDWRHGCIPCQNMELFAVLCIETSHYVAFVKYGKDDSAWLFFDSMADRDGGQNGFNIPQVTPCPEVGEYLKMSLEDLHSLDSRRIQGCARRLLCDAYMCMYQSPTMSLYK

[4] = target: USP22 zf-UBP domain, tag cleaved (for FP) (human) (UniProt Q9UPT9); assay: fluorescence polarisation; saturation or displacement not stated for this experiment; 50 mM phosphate buffer pH 7.4, room temperature
Sequence of USP22 zf-UBP domain, tag cleaved (for FP) (human) (Q9UPT9 whole entry, the tested form may be a part): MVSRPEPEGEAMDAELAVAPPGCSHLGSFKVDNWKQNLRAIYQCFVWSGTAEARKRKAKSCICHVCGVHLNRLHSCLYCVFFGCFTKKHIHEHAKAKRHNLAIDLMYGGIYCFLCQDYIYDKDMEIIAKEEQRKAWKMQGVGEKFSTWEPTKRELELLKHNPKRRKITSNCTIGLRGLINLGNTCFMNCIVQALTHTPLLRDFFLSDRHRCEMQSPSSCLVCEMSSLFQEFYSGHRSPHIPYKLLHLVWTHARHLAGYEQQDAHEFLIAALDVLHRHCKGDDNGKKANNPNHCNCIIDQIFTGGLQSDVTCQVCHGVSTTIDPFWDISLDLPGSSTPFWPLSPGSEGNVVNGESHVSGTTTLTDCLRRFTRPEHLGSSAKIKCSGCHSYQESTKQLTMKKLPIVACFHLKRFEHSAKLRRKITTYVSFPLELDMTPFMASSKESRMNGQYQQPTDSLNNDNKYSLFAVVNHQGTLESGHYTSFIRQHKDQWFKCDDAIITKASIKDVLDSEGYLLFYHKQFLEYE

[5] = target: T2, CYLD CAP-Gly3 domain, GST-tagged, Q9NQC7; assay: peptide SPOT array alanine scanning; details: chain shown with the change;; parent: est. 0; read off a plot
T2 chain: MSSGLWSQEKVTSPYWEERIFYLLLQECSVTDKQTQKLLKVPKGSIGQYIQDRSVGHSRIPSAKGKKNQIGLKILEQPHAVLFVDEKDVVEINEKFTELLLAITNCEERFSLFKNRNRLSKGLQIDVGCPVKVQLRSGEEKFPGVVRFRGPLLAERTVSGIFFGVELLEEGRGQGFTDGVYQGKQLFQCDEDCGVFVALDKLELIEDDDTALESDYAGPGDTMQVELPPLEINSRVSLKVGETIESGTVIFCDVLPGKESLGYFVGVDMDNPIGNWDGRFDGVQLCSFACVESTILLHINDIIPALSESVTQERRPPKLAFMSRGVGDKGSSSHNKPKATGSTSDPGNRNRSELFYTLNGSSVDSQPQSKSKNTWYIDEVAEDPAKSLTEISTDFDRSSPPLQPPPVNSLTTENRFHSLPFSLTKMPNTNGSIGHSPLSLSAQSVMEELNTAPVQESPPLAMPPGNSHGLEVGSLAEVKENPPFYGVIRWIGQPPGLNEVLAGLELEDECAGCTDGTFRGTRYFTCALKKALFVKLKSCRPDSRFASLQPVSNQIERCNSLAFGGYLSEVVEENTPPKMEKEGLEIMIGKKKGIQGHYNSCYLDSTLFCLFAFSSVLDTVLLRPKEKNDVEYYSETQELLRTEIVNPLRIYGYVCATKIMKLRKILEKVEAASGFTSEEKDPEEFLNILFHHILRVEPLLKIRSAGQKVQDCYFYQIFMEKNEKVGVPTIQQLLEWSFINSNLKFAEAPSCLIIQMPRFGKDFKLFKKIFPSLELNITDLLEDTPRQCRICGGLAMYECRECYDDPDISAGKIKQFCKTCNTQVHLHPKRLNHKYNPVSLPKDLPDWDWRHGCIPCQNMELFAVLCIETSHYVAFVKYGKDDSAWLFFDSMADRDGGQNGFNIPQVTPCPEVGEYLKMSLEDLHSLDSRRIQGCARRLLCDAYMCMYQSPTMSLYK

[6] = target: USP20 zf-UBP domain (human) (UniProt Q9Y2K6); assay: fluorescence polarisation; displacement: serial dilution of the unlabelled peptide against the domain (at two-fold the KD of the FITC-labelled peptide) in complex with 10 nM FITC-labelled peptide; 50 mM phosphate buffer pH 7.4; room temperature; three technical replicates; sigmoidal dose-response fit
Sequence of USP20 zf-UBP domain (human) (Q9Y2K6 whole entry, the tested form may be a part): as the sequence (Q9Y2K6 whole entry, the tested form may be a part) above

[7] = target: USP33 zf-UBP domain (human) (UniProt Q8TEY7); assay: as above
Sequence of USP33 zf-UBP domain (human) (Q8TEY7 whole entry, the tested form may be a part): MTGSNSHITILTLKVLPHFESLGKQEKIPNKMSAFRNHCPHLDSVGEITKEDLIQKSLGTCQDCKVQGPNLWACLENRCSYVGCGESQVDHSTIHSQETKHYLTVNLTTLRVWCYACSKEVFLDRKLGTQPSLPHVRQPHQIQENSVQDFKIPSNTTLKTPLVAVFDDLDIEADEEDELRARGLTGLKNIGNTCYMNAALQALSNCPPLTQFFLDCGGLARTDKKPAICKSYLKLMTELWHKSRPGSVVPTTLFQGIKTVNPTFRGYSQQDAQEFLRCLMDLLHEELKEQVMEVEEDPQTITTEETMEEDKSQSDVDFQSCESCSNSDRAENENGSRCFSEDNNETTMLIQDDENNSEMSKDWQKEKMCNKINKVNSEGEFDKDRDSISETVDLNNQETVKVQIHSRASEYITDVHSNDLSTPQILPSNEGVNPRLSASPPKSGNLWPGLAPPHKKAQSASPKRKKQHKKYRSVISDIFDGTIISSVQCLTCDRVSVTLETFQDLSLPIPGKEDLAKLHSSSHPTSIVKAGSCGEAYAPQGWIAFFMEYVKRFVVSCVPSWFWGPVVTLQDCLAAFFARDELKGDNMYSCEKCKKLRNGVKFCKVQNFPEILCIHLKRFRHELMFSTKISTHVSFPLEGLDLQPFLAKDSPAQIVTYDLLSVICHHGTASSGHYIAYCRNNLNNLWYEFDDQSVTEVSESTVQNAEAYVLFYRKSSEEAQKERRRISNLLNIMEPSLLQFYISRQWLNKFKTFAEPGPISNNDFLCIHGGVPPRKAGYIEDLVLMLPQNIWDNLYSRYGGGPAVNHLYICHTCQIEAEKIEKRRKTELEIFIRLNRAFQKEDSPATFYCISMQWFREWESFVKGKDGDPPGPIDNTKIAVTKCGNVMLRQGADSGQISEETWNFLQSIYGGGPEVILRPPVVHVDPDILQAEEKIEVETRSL

Sequence of USP33 DUSP2 domain (human) (Q8TEY7 whole entry, the tested form may be a part): as above

Binder: Ac-PYIPMDKDFQLRSFDQLS-NH2 [HIF1A 564-581 D570K peptide]
- Kd [1]: 9.89 µM
- Kd [2]: 18.8 µM

Binder: PDAELQRMEQEAERAR [RBM25_(558-573) peptide, P49756 R572A]
- other: signal change (%) [3]: -95%

Binder: VPSPEAFLGKPWSSWID-NH2 (also: N-terminus FITC-labeled or acetylated) [ATXN7L1_(36-52) peptide]
- Kd [4]: 11 µM

Binder: AGVFKDEIYIPLQEED [HECTD4_(3003-3018) peptide, Q9Y4D8 G3003A]
- other: signal change (%) [5]: -5%

Binder: PDAELQAMEQEAERRR [RBM25_(558-573) peptide, P49756 R564A]
- other: signal change (%) [3]: -65%

Binder: VPSLDDFAGQSWSSWVERADLP-NH2 (also: N-terminus FITC-labeled or acetylated) [ATXN7L2_(18-39) peptide]
- Kd [4]: 3 µM

Binder: GGVFKDAIYIPLQEED [HECTD4_(3003-3018) peptide, Q9Y4D8 E3009A]
- other: signal change (%) [5]: -95%

Binder: Ac-SDDDLAWNIAPQGLQ-NH2 [GPR137B 348-362 peptide, unlabelled]
- Kd [1]: 228 µM
- Kd [2]: 10.2 µM

Binder: GGVFKAEIYIPLQEED [HECTD4_(3003-3018) peptide, Q9Y4D8 D3008A]
- other: signal change (%) [5]: -95%

Binder: Ac-QLEEELFQLRQGPAGY-NH2 [CCDC88B 947-961 peptide]
- Kd [1]: 40.1 µM
- Kd [2]: 22.4 µM

Binder: VPSLDDFAGQSWSSWVE-NH2 (also: N-terminus FITC-labeled or acetylated) [ATXN7L2_(18-34) peptide]
- Kd [4]: 19 µM

Binder: PDAELQRMEQEAEARR [RBM25_(558-573) peptide, P49756 R571A]
- other: signal change (%) [3]: -40%

Binder: Ac-YEKVKRRLDLDID-NH2 [CCP110 582-593 peptide]
- Kd [6]: 505 µM
- Kd [7]: 260 µM

Binder: PAAELQRMEQEAERRR [RBM25_(558-573) peptide, P49756 D559A]
- other: signal change (%) [3]: -10%

Binder: PDAELQRAEQEAERRR [RBM25_(558-573) peptide, P49756 M565A]
- other: signal change (%) [3]: -90%

Binder: GGVFKDEIYIPAQEED [HECTD4_(3003-3018) peptide, Q9Y4D8 L3014A]
- other: signal change (%) [5]: 50%

Binder: PDAEAQRMEQEAERRR [RBM25_(558-573) peptide, P49756 L562A]
- other: signal change (%) [3]: -95%

Binder: PDAELQRMEQEAARRR [RBM25_(558-573) peptide, P49756 E570A]
- other: signal change (%) [3]: -10%

Binder: Ac-YTNSSGKMALNSPQPG-NH2 [IRAG1 302-316 peptide]
- Kd [6]: 9.02 µM
- Kd [7]: 7.86 µM

Binder: GGAFKDEIYIPLQEED [HECTD4_(3003-3018) peptide, Q9Y4D8 V3005A]
- other: signal change (%) [5]: -70%

Binder: PDAELQRMEAEAERRR [RBM25_(558-573) peptide, P49756 Q567A]
- other: signal change (%) [3]: -25%

Binder: GGVFKDEIYAPLQEED [HECTD4_(3003-3018) peptide, Q9Y4D8 I3012A]
- other: signal change (%) [5]: -90%

Binder: Ac-YPFQPGRMALESQSPG-NH2 [USP19 874-888 peptide]
- Kd [6]: 162 µM
- Kd [7]: 40.6 µM

Binder: GGVFADEIYIPLQEED [HECTD4_(3003-3018) peptide, Q9Y4D8 K3007A]
- other: signal change (%) [5]: -95%

Binder: Ac-YLQPSSKASLESTSDL-NH2 [CEP192 2073-2087 peptide]
- Kd [6]: 37.1 µM
- Kd [7]: 14.1 µM

Binder: Ac-PYIPMDDDFQARSFDQLS-NH2 [HIF1A 564-581 L574A peptide]
- Kd [1]: 227 µM

Binder: GGVFKDEIAIPLQEED [HECTD4_(3003-3018) peptide, Q9Y4D8 Y3011A]
- other: signal change (%) [5]: -95%

Binder: GGVFKDEIYIPLQEAD [HECTD4_(3003-3018) peptide, Q9Y4D8 E3017A]
- other: signal change (%) [5]: 55%

Binder: GGVFKDEIYIPLQAED [HECTD4_(3003-3018) peptide, Q9Y4D8 E3016A]
- other: signal change (%) [5]: -25%

Binder: PDAELQRMEQEAERRA [RBM25_(558-573) peptide, P49756 R573A]
- other: signal change (%) [3]: -95%

Binder: ADAELQRMEQEAERRR [RBM25_(558-573) peptide, P49756 P558A]
- other: signal change (%) [3]: -5%

Binder: GAVFKDEIYIPLQEED [HECTD4_(3003-3018) peptide, Q9Y4D8 G3004A]
- other: signal change (%) [5]: -95%

Binder: GGVFKDEIYIPLQEEA [HECTD4_(3003-3018) peptide, Q9Y4D8 D3018A]
- other: signal change (%) [5]: 35%

Binder: Ac-PYIPMDGEDFQLSPICPE-NH2 [HIF2A 531-548 peptide]
- Kd [1]: 1180 µM
- Kd [2]: 235 µM

Binder: VPSPEAFLGKPWSSWIDAAKLH-NH2 (also: N-terminus FITC-labeled or acetylated) [ATXN7L1_(36-57) peptide]
- Kd [4]: 0.1 µM

Binder: PDAELARMEQEAERRR [RBM25_(558-573) peptide, P49756 Q563A]
- other: signal change (%) [3]: -35%

Binder: PDAELQRMEQAAERRR [RBM25_(558-573) peptide, P49756 E568A]
- other: signal change (%) [3]: -15%

Binder: GGVFKDEIYIPLAEED [HECTD4_(3003-3018) peptide, Q9Y4D8 Q3015A]
- other: signal change (%) [5]: -15%

Binder: GGVFKDEAYIPLQEED [HECTD4_(3003-3018) peptide, Q9Y4D8 I3010A]
- other: signal change (%) [5]: -95%

Binder: GGVFKDEIYIALQEED [HECTD4_(3003-3018) peptide, Q9Y4D8 P3013A]
- other: signal change (%) [5]: -85%

Binder: PDAELQRMAQEAERRR [RBM25_(558-573) peptide, P49756 E566A]
- other: signal change (%) [3]: -15%

Binder: GGVAKDEIYIPLQEED [HECTD4_(3003-3018) peptide, Q9Y4D8 F3006A]
- other: signal change (%) [5]: -95%

Binder: Ac-DVVDDFQLQHRHGPGY-NH2 [MFSD2B 395-409 peptide]
- Kd [1]: 0.75 µM
- Kd [2]: 44.7 µM

Binder: PDAALQRMEQEAERRR [RBM25_(558-573) peptide, P49756 E561A]
- other: signal change (%) [3]: -30%

Reference: article PMC13376213, “Systematic discovery of motif-based interactions of the auxiliary domains of USP family deubiquitinases” (Nature Communications, 2026)
